In patent US5521072:

The substances below were run against recombinant Actinobacillus pleuropneumoniae serotype 7 60 kDa transferrin binding protein (Actinobacillus pleuropneumoniae serotype 7 strain AP205) (assay: competitive ELISA, 50% inhibition value, solid phase porcine transferrin).
In the case of “bovine apotransferrin (from UniProt Q29443) (ligand)”, the IC50 is reported as over 1000 µg/mL. “bovine transferrin, iron replete (from UniProt Q29443) (ligand)” was tested, and the IC50 was over 1000 µg/mL. In the case of “human apotransferrin (from UniProt P02787) (ligand)”, the IC50 is reported as over 1000 µg/mL. In the case of “human transferrin, iron replete (from UniProt P02787) (ligand)”, the IC50 is reported as over 1000 µg/mL. With “porcine TF, NH2-terminus (from UniProt P09571) (ligand)” the IC50 was 20 µg/mL. For “porcine apotransferrin (from UniProt P09571) (ligand)”, the IC50 was 150 µg/mL.

The substances below were run against recombinant Actinobacillus pleuropneumoniae serotype 7 60 kDa transferrin binding protein (Actinobacillus pleuropneumoniae serotype 7 strain AP205) (assay: competitive ELISA, 50% inhibition value; competitor preincubated with the recombinant 60 kDa protein, solid phase porcine transferrin).
In the case of “porcine transferrin (TF), iron replete (from UniProt P09571) (ligand)”, the IC50 is reported as 25 µg/mL.
